Source: patent US20170137467A1 (CHROMOTEK, published 2017)
Square brackets hold non-standard residues; d marks the D form. GABA = NCCCC(=O)O

T1: BC2T K4R (human)
T1 construct: position 4 library, row R
T1 peptide: Ac-PDRRAAVSHWQQ-NH2

T2: BC2T V7S (human)
T2 construct: position 7 library, row S
T2 peptide: Ac-PDRKAASSHWQQ-NH2

T3: BC2T R3N (human)
T3 construct: position 3 library (BC2TR3X), row N
T3 peptide: Ac-PDNKAAVSHWQQ-NH2

T4: BC2T A5S (human)
T4 construct: position 5 library, row S
T4 peptide: Ac-PDRKSAVSHWQQ-NH2

T5: BC2T V7Y (human)
T5 construct: position 7 library, row Y
T5 peptide: Ac-PDRKAAYSHWQQ-NH2

T6: BC2T A6W (human)
T6 construct: position 6 library (BC2TA6X), row W
T6 peptide: Ac-PDRKAWVSHWQQ-NH2

T7: BC2T R3K (human)
T7 construct: position 3 library (BC2TR3X), row K
T7 peptide: Ac-PDKKAAVSHWQQ-NH2

T8: BC2T K4S (human)
T8 construct: position 4 library, row S
T8 peptide: Ac-PDRSAAVSHWQQ-NH2

T9: BC2T P1C(Abu) (human, SMILES …)
T9 construct: position 1 library, row C(Abu) / C*
T9 peptide: Ac-[GABA]DRKAAVSHWQQ-NH2

T10: BC2T R3Y (human)
T10 construct: position 3 library (BC2TR3X), row Y
T10 peptide: Ac-PDYKAAVSHWQQ-NH2

T11: BC2T P1R (human)
T11 construct: position 1 library, row R
T11 peptide: Ac-RDRKAAVSHWQQ-NH2

T12: BC2T V7R (human)
T12 construct: position 7 library, row R
T12 peptide: Ac-PDRKAARSHWQQ-NH2

T13: BC2T D2H (human)
T13 construct: position 2 library, row H
T13 peptide: Ac-PHRKAAVSHWQQ-NH2

T14: BC2T R3D (human)
T14 construct: position 3 library (BC2TR3X), row D
T14 peptide: Ac-PDDKAAVSHWQQ-NH2

T15: BC2T D2N (human)
T15 construct: position 2 library, row N
T15 peptide: Ac-PNRKAAVSHWQQ-NH2

T16: BC2T A5Q (human)
T16 construct: position 5 library, row Q
T16 peptide: Ac-PDRKQAVSHWQQ-NH2

T17: BC2T D2W (human)
T17 construct: position 2 library, row W
T17 peptide: Ac-PWRKAAVSHWQQ-NH2

T18: BC2T A6R (human)
T18 construct: position 6 library (BC2TA6X), row R
T18 peptide: Ac-PDRKARVSHWQQ-NH2

T19: BC2T D2S (human)
T19 construct: position 2 library, row S
T19 peptide: Ac-PSRKAAVSHWQQ-NH2

T20: BC2T P1H (human)
T20 construct: position 1 library, row H
T20 peptide: Ac-HDRKAAVSHWQQ-NH2

T21: BC2T K4Q (human)
T21 construct: position 4 library, row Q
T21 peptide: Ac-PDRQAAVSHWQQ-NH2

T22: BC2T P1S (human)
T22 construct: position 1 library, row S
T22 peptide: Ac-SDRKAAVSHWQQ-NH2


Experiments:
Test in all cases: library pulldown, LC-MS of supernatant; ratio vs GFP-Nb control (0=captured, 1=not captured)
BC2T K4R = biological target: T1, BC2T K4R
Summary of the method: (§1)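 Unbound peptide left in supernatant after 1 h pulldown in PBS/0.01% CHAPS measured by reversed-phase LC-MS (8–30% eluent B gradient, 20 min).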

BC2T V7S = biological target: T2, BC2T V7S
Summary of the method: as §1

BC2T R3N = biological target: T3, BC2T R3N
Summary of the method: as §1

BC2T A5S = biological target: T4, BC2T A5S
Summary of the method: as §1

BC2T V7Y = biological target: T5, BC2T V7Y
Summary of the method: as §1

BC2T A6W = biological target: T6, BC2T A6W
Summary of the method: as §1

BC2T R3K = biological target: T7, BC2T R3K
Summary of the method: as §1

BC2T K4S = biological target: T8, BC2T K4S
Summary of the method: as §1

BC2T P1C(Abu) = biological target: T9, BC2T P1C(Abu)
Summary of the method: as §1

BC2T R3Y = biological target: T10, BC2T R3Y
Summary of the method: as §1

BC2T P1R = biological target: T11, BC2T P1R
Summary of the method: as §1

BC2T V7R = biological target: T12, BC2T V7R
Summary of the method: as §1

BC2T D2H = biological target: T13, BC2T D2H
Summary of the method: as §1

BC2T R3D = biological target: T14, BC2T R3D
Summary of the method: as §1

BC2T D2N = biological target: T15, BC2T D2N
Summary of the method: as §1

BC2T A5Q = biological target: T16, BC2T A5Q
Summary of the method: as §1

BC2T D2W = biological target: T17, BC2T D2W
Summary of the method: as §1

BC2T A6R = biological target: T18, BC2T A6R
Summary of the method: as §1

BC2T D2S = biological target: T19, BC2T D2S
Summary of the method: as §1

BC2T P1H = biological target: T20, BC2T P1H
Summary of the method: as §1

BC2T K4Q = biological target: T21, BC2T K4Q
Summary of the method: as §1

BC2T P1S = biological target: T22, BC2T P1S
Summary of the method: as §1

Row | ratio (BC2T K4R) | ratio (BC2T V7S) | ratio (BC2T R3N) | ratio (BC2T A5S) | ratio (BC2T V7Y) | ratio (BC2T A6W) | ratio (BC2T R3K) | ratio (BC2T K4S) | ratio (BC2T P1C(Abu)) | ratio (BC2T R3Y) | ratio (BC2T P1R) | ratio (BC2T V7R) | ratio (BC2T D2H) | ratio (BC2T R3D) | ratio (BC2T D2N) | ratio (BC2T A5Q) | ratio (BC2T D2W) | ratio (BC2T A6R) | ratio (BC2T D2S) | ratio (BC2T P1H) | Binder | further results
1 | 0.1 | 0.3 | 0.7 | 0.1 | 0.1 | 1.1 | 0.2 | 0.3 | 0.1 | 0.7 | 0.2 | 0.2 | 0.1 | 1 | 0.2 | 0.2 | 0.2 | 1.1 | 0.1 | 0.3 | BC2 nanobody (BC2-Nb) (VHH, immobilised on agarose/sepharose beads in this assay; also called BC2 nanotrap (immobilised form); not shown: C-terminal 6xHis-tag added by pHEN6 vector) VHH: QVQLVESGGGLVQPGGSLTLSCTASGFTLDHYDIGWFRQAPGKEREGVSCINNSDDDTYYADSVKGRFTIFMDNAKDTVYLQMNSLKPEDTAIYYCAEARGCKRGRYEYDFWGQGTQVTVSS | ratio (BC2T K4Q): 0.1; ratio (BC2T P1S): 0.3
2 | 0.1 | 0.4 | 1 | 0.4 | 0.3 | 1 | 0.5 | 0.7 | 0.3 | 1 | 0.4 | 0.2 | 0.2 | 1 | 0.3 | 0.3 | 0.3 | 0.7 | 0.3 | 0.6 | BC2-NbR106S (VHH, immobilised on beads in this assay; not shown: C-terminal 6xHis-tag added by pHEN6 vector) VHH: QVQLVESGGGLVQPGGSLTLSCTASGFTLDHYDIGWFRQAPGKEREGVSCINNSDDDTYYADSVKGRFTIFMDNAKDTVYLQMNSLKPEDTAIYYCAEARGCKRGSYEYDFWGQGTQVTVSS | ratio (BC2T K4Q): 0.4; ratio (BC2T P1S): 0.6
